We go through 14 molecules from patent publication US7238711.

Several values for one entry are separate records, joined by “and”; a condition that tells them apart may be missing. Equal entries are not always repeated. No end group written: not given here.

Test [1] concerns the target Duffy Antigen Receptor for Chemokines (DARC) (human) (UniProt Q16570). Put plainly: estimated ka for red blood cells divided by average inhibitory ED50.
Test [2] concerns the target chemokine receptors on THP-1 cells. Put plainly: binding to THP-1 cells (given as association constant).
Test [3] concerns the target Duffy Antigen Receptor for Chemokines (DARC) (human) (UniProt Q16570). The test is described as follows: DARC binding, red blood cells (given as association constant).
The target in test [4] is chemokine receptors on THP-1 cells. Put plainly: binding to THP-1 cells.
In test [5] the target is T1, Duffy Antigen Receptor for Chemokines (DARC) (human), Q16570.
T1 chain: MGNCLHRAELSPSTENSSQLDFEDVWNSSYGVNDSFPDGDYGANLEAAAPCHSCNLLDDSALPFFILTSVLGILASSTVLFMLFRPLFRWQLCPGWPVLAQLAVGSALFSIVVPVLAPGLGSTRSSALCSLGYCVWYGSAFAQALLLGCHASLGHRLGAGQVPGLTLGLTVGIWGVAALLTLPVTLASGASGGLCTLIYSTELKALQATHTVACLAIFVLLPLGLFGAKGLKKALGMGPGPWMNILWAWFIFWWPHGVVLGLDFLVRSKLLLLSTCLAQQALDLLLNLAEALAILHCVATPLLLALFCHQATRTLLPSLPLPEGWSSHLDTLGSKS
The test is described as follows: estimated ka for red blood cells divided by average inhibitory ED50.

Test [6] addresses CCR5 (human), P51681. The test is described as follows: 125I-RANTES Scatchard, HOS CCR5 line. Conditions: remark: other sources report otherwise.
For test [7], the target named is CCR5 (human), P51681. Put plainly: 12-point Scatchard, parental HOS line (the filing suggests background CCR5). Conditions: remark: other sources report otherwise.
Test [8] addresses CCR5 (human), P51681. Put plainly: 12-point Scatchard, 0.03 nM 125I-RANTES with cold RANTES, 4° C., 2 hours. Conditions: remark: other sources report otherwise.
Test [9] addresses CCR5 (human), P51681. Put plainly: 125I-RANTES Scatchard, parental HOS line (the filing suggests background CCR5). The settings on record: remark: other sources report otherwise.
Test [10] deals with CCR5 (human), P51681. The test is described as follows: 12-point Scatchard, HOS CCR5 line. The settings on record: remark: other sources report otherwise.
In a further test the target is MCP-1 (human), P13500. Put plainly: cell-based or functional assay.
Test [11] concerns the target chemokine receptors on THP-1 cells. Put plainly: receptors on THP-1 cells against DARC.
In test [12] the target is T1, Duffy Antigen Receptor for Chemokines …. The test is described as follows: ka for red blood cells divided by ka for THP-1 cells.
Test [13] deals with chemokine receptors on the surface of Jurkat cells. Put plainly: binding to Jurkat cells.
A further test deals with T2, CXCR2 (human), P25025.
T2 chain: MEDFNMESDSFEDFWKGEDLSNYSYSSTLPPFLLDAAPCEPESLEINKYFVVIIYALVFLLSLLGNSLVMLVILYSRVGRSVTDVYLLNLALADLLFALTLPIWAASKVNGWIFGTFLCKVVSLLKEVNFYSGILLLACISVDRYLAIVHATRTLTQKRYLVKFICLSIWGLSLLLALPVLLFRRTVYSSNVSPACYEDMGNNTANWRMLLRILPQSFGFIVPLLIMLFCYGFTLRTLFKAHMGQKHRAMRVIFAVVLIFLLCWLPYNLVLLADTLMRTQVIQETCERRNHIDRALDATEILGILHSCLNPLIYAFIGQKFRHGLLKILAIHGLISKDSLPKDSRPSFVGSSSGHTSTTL
Put plainly: biotin-labeled peptide at 10 µM on CHO transformants, 125I-streptavidin.

In a further test the target is T3, CXCR1 (human), P25024.
T3 chain: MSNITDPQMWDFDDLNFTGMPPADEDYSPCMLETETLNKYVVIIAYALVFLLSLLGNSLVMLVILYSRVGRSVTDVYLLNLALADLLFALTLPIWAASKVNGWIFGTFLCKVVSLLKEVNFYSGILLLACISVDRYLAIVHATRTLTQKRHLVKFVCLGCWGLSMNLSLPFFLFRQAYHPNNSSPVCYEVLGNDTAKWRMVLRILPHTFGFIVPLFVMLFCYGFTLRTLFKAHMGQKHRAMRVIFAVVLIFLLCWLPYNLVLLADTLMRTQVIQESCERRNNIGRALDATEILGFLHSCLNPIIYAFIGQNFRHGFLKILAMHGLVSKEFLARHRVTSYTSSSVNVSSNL
The description is as above.

Test [14] deals with cell surface molecule on THP-1 cells. Put plainly: binding of biotinylated peptide 3 to THP-1 cells, labeled streptavidin.
The target of a further test is CCR2 (human), P41597. Put plainly: biotin-labeled peptide at 10 µM on HOS transformants, 125I-streptavidin.
For test [15], the target named is CCR5 (human), P51681. Described as above.
In another test the target is T4, CCR3 (human), P51677.
T4 chain: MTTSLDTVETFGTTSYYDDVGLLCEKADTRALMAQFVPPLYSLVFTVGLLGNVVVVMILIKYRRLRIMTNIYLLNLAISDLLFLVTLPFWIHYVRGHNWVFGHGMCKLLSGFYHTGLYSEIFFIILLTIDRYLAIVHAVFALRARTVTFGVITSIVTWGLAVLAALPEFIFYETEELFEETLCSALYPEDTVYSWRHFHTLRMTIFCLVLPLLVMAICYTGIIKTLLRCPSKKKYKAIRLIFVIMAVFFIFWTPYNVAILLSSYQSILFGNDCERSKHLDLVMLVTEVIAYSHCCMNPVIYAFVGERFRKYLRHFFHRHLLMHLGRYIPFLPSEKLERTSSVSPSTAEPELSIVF
The description is as above.

For another test, the target named is T5, CXCR4 (human), P61073.
T5 chain: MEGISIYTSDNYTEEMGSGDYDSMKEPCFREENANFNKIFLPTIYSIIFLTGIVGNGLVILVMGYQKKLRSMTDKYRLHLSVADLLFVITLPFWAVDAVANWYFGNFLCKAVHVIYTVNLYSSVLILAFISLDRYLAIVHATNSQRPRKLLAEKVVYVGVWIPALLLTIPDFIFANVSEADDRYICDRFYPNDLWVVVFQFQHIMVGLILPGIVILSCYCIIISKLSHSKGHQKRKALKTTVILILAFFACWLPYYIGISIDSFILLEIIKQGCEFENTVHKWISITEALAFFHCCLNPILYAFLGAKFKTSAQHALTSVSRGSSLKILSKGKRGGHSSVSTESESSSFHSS
The description is as above.

In another test the target is T6, CCR4 (human), P51679.
T6 chain: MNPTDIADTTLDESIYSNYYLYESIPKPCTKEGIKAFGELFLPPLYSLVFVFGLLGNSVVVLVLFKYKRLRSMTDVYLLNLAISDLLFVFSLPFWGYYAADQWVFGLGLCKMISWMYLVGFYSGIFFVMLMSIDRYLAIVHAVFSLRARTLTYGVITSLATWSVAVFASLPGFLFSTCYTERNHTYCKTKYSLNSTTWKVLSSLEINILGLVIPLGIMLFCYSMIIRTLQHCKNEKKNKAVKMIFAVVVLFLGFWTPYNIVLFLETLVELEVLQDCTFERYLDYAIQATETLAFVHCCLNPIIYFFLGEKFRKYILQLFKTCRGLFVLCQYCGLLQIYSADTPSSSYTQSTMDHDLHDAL
Described as above.

Another test deals with T7, CCR1 (human), P32246.
T7 chain: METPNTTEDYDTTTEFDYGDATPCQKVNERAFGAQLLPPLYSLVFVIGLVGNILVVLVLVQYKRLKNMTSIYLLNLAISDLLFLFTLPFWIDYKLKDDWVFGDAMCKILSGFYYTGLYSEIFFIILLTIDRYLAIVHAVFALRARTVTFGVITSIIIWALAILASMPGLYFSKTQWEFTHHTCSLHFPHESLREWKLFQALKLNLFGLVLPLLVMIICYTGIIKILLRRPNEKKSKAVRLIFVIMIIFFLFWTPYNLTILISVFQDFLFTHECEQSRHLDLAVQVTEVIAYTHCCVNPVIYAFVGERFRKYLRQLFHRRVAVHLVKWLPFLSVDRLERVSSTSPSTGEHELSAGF
The description is as above.

Test [16] deals with CCR5 (human), P51681. The test is described as follows: cell-based or functional assay.

Chain of CCR5 (human), P51681 (P51681 whole entry): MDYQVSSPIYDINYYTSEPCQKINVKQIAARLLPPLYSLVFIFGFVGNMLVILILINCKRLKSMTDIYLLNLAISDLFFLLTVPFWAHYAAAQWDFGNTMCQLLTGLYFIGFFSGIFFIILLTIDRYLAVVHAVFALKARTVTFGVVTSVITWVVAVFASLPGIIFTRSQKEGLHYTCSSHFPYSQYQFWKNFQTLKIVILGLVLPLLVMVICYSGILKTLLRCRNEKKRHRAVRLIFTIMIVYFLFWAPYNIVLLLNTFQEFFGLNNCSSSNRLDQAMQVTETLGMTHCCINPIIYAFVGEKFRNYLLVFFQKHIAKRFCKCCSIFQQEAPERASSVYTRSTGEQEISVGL
Chain of CCR2 (human), P41597 (P41597 whole entry): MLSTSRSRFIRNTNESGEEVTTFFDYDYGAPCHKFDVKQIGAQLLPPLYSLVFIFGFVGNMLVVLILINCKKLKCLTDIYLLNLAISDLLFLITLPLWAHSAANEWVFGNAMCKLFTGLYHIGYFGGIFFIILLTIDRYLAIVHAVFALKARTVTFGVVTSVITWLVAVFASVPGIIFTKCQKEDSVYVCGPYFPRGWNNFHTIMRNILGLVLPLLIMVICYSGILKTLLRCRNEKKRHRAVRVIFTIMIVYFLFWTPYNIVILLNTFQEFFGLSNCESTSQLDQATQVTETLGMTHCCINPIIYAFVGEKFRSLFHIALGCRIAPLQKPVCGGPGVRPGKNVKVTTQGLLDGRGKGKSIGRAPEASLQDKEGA
Chain of MCP-1 (human), P13500 (P13500 24-99 limits assumed): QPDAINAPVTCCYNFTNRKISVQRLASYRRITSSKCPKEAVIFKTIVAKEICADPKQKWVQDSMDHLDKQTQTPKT

B1: CRD-Cys13Leu4Ile11 peptide 3(3-12)[MCP-1] (peptide)
peptide: CQIWKQKPDLC
modifications: not fully specified (some residues, bridges); cysteine pairing not given here
The Kd is the free concentration of one partner at which half of the binding sites on the other are occupied at equilibrium, for simple one-to-one binding. In the case of B1, the Duffy selectivity in test [1] was > 100. Besides, the Kd in test [2] was 0.1 to 0.5 µM; in test [3], 90 µM. Besides, the binding sites per cell (sites per cell) in [4] is 150000.

B2: Ser7Glu8Glu9 peptide 3(1-12)[MCP-1] (peptide)
peptide: EICADPSEEWVQ
modifications: not fully specified
With B2, the Duffy selectivity in test [5] was 0.59.

B3: RANTES, P13501 24-91 (ligand, UniProt P13501 24-91, looked up)
chain: SPYSSDTTPCCFAYIARPLPRAHIKEYFYTSGKCSNPAVVFVTRKNRQVCANPEKKWVREYINSLEMS
As for B3, the binding sites per cell (sites per cell) in the test with CCR5 (human), P51681 [6] was 200000 and 400000; with CCR5 (human), P51681 [7], 100000; in the test with CCR5 (human), P51681 [9] it was 80000; in the test with CCR5 (human), P51681 [10] it was 200000. This molecule also displayed a Kd with CCR5 (human), P51681 [8] of 0.001 µM.

B4: CRD-Cys13pep3[3-12] (peptide)
peptide: CQVWKQKPDAC
modifications: not fully specified (some residues, bridges); cysteine pairing not given here
Regarding B4, in test [1], the Duffy selectivity is 8.82.

B5: Peptide 1[MCP-1] (peptide)
peptide: AQPDAINAPVTCC
modifications: not fully specified; cysteine pairing not given here
As for B5, the inhibition of MCP-1 induced THP-1 migration, peptide with the chemokine in the lower compartment with MCP-1 (human), P13500 was 48%.

B6: Pep2(1-15)[SDF1] (peptide)
peptide: HLKILNTPNCALQIV
For orientation: IC50 means the point on the concentration scale where inhibition reaches its midpoint. Low readings indicate greater potency, high ones weaker potency. Take B6: the IC50 with chemokine receptors was 35 µM.

B7: Pep2(1-14)[MIP1α] (peptide)
peptide: DYFETSSQCSKPGV
For the molecule B7, in the test with chemokine receptors, the IC50 is > 100 µM. The molecule also had a binding sites per cell (sites per cell) in [4] of 150000.

B8: Leu4Ile11 peptide 3(1-12)[MCP-1] (peptide)
peptide: EICLDPKQKWIQ
modifications: not fully specified
As for B8, the Duffy selectivity in test [5] was 37.8. Further, the fold selectivity over DARC in [11] was > 20 fold.

B9: Pep2(1-16)[IL8] (peptide)
peptide: ELRVIESGPHCANTEI
modifications: not fully specified
For B9, the Duffy selectivity in test [12] was < 1.

B10: peptide 2(1-15)[MCP-1] (peptide)
peptide: SYRRITSSKCPKEAV
The molecule B10 registered an IC50 with chemokine receptors of 0.4 µM. The binding sites per cell in [13] was determined as 55000 sites/cell; in test [4] it was 130000 sites/cell.

B11: Ser7 peptide 3(1-12)[MCP-1] (peptide)
peptide: EICADPSQKWVQ
modifications: not fully specified
With B11, the Duffy selectivity in test [5] is 2.

B12: N-terminal biotin conjugate of the sequence n'-…-c' (peptide)
peptide: CLDPKQKWIQC
modifications: not fully specified (N-terminus); cysteine pairing not given here
For the molecule B12, the Kd in the test with CXCR2 (human), P25025 is > 10 µM; with CXCR1 (human), P25024, > 10 µM; in the test with CCR2 (human), P41597, > 10 µM; with CCR5 (human), P51681 [15] it was > 10 µM; with CCR3 (human), P51677 it was > 10 µM; with CXCR4 (human), P61073, > 10 µM. The Kd in the test with CCR4 (human), P51679 is > 10 µM; in the test with CCR1 (human), P32246, > 10 µM. For the same molecule, the binding sites per cell (receptors/cell) in test [14] amounted to 1000.

B13: Pep3(3-12)[MCP-1] (peptide)
peptide: CADPKQKWVQ
modifications: not fully specified
With B13, the Duffy selectivity in test [5] is 1.21.

B14: peptide 3(1-12)[MCP-1] (peptide)
peptide: EICADPKQKWVQ
modifications: not fully specified
On to B14, for which the Duffy selectivity in test [5] (remark: other sources report otherwise) was 1. This molecule also showed a decrease in HIV infection of THP-1 cells, immunofluorescence staining with CCR5 (human), P51681 [16] of 83%.
